Laboratory results published in publication PMC13384491.

What was measured:
[1] = molecular target: Axonemes purified from sea urchin sperm, used as microtubule tracks (sea urchin); assay: optical trapping; fixed (stationary) trap, high z-force: biotinylated K560 directly on 860-nm streptavidin beads, single motors, surface-immobilized axonemes, 2 mM ATP, 30 mM HEPES, 5 mM MgSO4, 1 mM EGTA, 10% glycerol, pH 7.4 with casein
[2] = molecular target: Axonemes purified from sea urchin sperm, used as microtubule tracks (sea urchin); assay: optical trapping; fixed (stationary) trap, low z-force: oligo-labeled full-length KIF5B on 510-nm beads through a 2.8 kb DNA handle, single motors, surface-immobilized axonemes, 2 mM ATP, 30 mM HEPES, 5 mM MgSO4, 1 mM EGTA, 10% glycerol, pH 7.4 with casein

Substance	stall time before detachment (weighted average of the two decays) [1] [s]	stall time before detachment (weighted average of the two decays) [2] [s]
K560-GFP-SNAP, tail-truncated, constitutively active human kinesin-1 KIF5B (amino acids 1-560) (from UniProt P33176 1-560) (domain or fragment)	0.27	–
KIF5B-GFP-SNAP, full-length human kinesin-1 KIF5B, oligo-labeled (from UniProt P33176 1-963) (natural protein)	–	1.49
